*1 amine or outer side, *2 acyl side, *3 side chain or, on linkers, in order; H or OH if unused. Bridges are numbered along the chain shown (N, C = ends). Primed or numbered codes have the meaning given here. Where no end group is shown, it is not given here. Side-chain parts run from the residue outwards. [ ]: non-standard residue; d: D form. The star is where a group is joined. code d = side-chain group of K(d): lysine given as (2R)-2-(4-((5-amino-5-carboxypentyl)amino)-4-oxobutanamido)-3-carboxy-N,N,N-trimethylpropan-1-aminium, C[N+](C)(C)C[C@@H](CC(=O)O)NC(=O)CCC(=O)*; TMAPF = 5-(4-(2-amino-2-carboxyethyl)phenoxy)-N,N,N-trimethylpentan-1-aminium, C[N+](C)(C)CCCCCOc1ccc(C[C@H](N[*:1])C(=O)[*:2])cc1; code d″ = lysine side-chain amide of a carnitine-succinyl group ((2R)-3-carboxy-N,N,N-trimethylpropan-1-aminium amide; PEG2′ = PEG2 spacer unit (not further defined); Trp(7-Me) = Cc1cccc2c(C[C@H](N)C(=O)O)c[nH]c12; γGlu = O=C(O)[C@H](CCC(=O)[*:2])N[*:1]; 2Nal = N[C@@H](Cc1ccc2ccccc2c1)C(=O)O; AEF = NCCOc1ccc(C[C@H](N)C(=O)O)cc1; 3Pal = N[C@@H](Cc1cccnc1)C(=O)O; succiniccarn = not defined here; NMeK = CN[C@@H](CCCCN)C(=O)O; NMecPEG3a = not defined here; Pen = CC(C)(S)[C@H](N)C(=O)O; NMeC18OH = not defined here; 5cpaCO = not defined here; PEG2″ = PEG2 spacer unit; dAEF′ = not defined here; Thp = NC1(C(=O)O)CCOCC1; Sar = CNCC(=O)O
B1: SEQ ID NO: 78 (peptide)
peptide: XNTXXXXXXKNXX
modifications: cPEG3aCO-Pen(3)-N-T-7MeW-K(Ac)-Pen(3)-AEF-2Nal-THP-K(PEG2PEG2gEC18OH)-N-3Pya-Sar-CONH2
B2: SEQ ID NO: 79 (peptide)
peptide: Ac-[dR][Pen]NT[Trp(7-Me)]K([PEG2′-PEG2′-γGlu-C18OH])[Pen][AEF][2Nal][Thp]K(NMecPEG3a)N[3Pal][Sar]-NH2
modifications: disulfide 2-7 (inferred); reading uncertain; also: printed as MeCO-r-Pen(3)-N-T-7MeW-K(PEG2PEG2gEC18OH)-Pen(3)-AEF-2Nal-THP-K(NMecPEG3a)-N-3Pya-Sar-CONH2
B3: SEQ ID NO: 50 (peptide)
peptide: XNTXXXXXXXNXXK
modifications: MeCO-Pen(3)-N-T-7MeW-K(Ac)-Pen(3)-AEF-2Nal-THP-K(d)-N-3Pya-Sar-K(PEG2PEG2gEC18OH)-CONH2
B4: SEQ ID NO: 71 (peptide)
peptide: [dR][Pen]NT[Trp(7-Me)]K([PEG2″-PEG2″-C18OH])[Pen][AEF][2Nal][Thp]EN[3Pal][Sar]-NH2
modifications: disulfide 2-7 (inferred); not fully specified (N-terminus); printed as 5cpaCO-r-Pen(3)-N-T-7MeW-K(PEG2PEG2C18OH)-Pen(3)-AEF-2Nal-THP-E-N-3Pya-Sar-CONH2
B5: SEQ ID NO: 54 (peptide)
peptide: succiniccarn-[dR][Pen]NT[Trp(7-Me)]K(Ac)[Pen][AEF][2Nal][Thp]EN[3Pal][Sar]K([PEG2″-PEG2″-γGlu-C18OH])-NH2
modifications: disulfide 2-7 (inferred); reading uncertain; also: printed as succiniccarn-r-Pen(3)-N-T-7MeW-K(Ac)-Pen(3)-AEF-2Nal-THP-E-N-3Pya-Sar-K(PEG2PEG2gEC18OH)-CONH2
B6: SEQ ID NO: 73 (peptide)
peptide: [dR][Pen]K([PEG2″-PEG2″-γGlu-C18OH])T[Trp(7-Me)]K(Ac)[Pen][AEF][2Nal][Thp]EN[3Pal][Sar]-NH2
modifications: disulfide 2-7 (inferred); not fully specified (N-terminus); printed as 5cpaCO-r-Pen(3)-K(PEG2PEG2gEC18OH)-T-7MeW-K(Ac)-Pen(3)-AEF-2Nal-THP-E-N-3Pya-Sar-CONH2
B7: SEQ ID NO: 31 (peptide)
peptide: succiniccarn-[dR][Pen]NT[Trp(7-Me)]K(Ac)[Pen][AEF][2Nal][Thp]EN[3Pal][NMeK]([PEG2′-PEG2′-γGlu-C18OH])-NH2
modifications: disulfide 2-7 (inferred); reading uncertain; also: printed as succiniccarn-r-Pen(3)-N-T-7MeW-K(Ac)-Pen(3)-AEF-2Nal-THP-E-N-3Pya-NMeK(PEG2PEG2gEC18OH)-CONH2
B8: SEQ ID NO: 86 (peptide)
peptide: XNTXKXXXXKNXX
modifications: MeCO-Pen(3)-N-T-7MeW-K(NMecPEG3a)-Pen(3)-AEF-2Nal-THP-K(PEG2PEG2gEC18OH)-N-3Pya-Sar-CONH2
B9: SEQ ID NO: 49 (peptide)
peptide: succiniccarn-[dR][Pen]NT[Trp(7-Me)]K(Ac)[Pen][AEF][2Nal][Thp]K([PEG2″-PEG2″-γGlu-C18OH])N[3Pal][Sar]-NH2
modifications: disulfide 2-7 (inferred); reading uncertain; also: printed as succiniccarn-r-Pen(3)-N-T-7MeW-K(Ac)-Pen(3)-AEF-2Nal-THP-K(PEG2PEG2gEC18OH)-N-3Pya-Sar-CONH2
B10: SEQ ID NO: 45 (peptide)
peptide: [dR][Pen]NT[Trp(7-Me)]K(Ac)[Pen][AEF][2Nal][Thp]K(code d)N[3Pal][Sar]-NH2
modifications: disulfide 2-7 (inferred); not fully specified (N-terminus); printed as HOC18gEPEG2PEG2CO-r-Pen(3)-N-T-7MeW-K(Ac)-Pen(3)-AEF-2Nal-THP-K(d)-N-3Pya-Sar-CONH2
B11: SEQ ID NO: 32 (peptide)
peptide: {C18OH-γGlu-PEG2′-PEG2′}-[dR][Pen]NT[Trp(7-Me)]K(Ac)[Pen][dAEF′][2Nal][Thp]EN[3Pal][Sar]-NH2
modifications: disulfide 2-7 (inferred); reading uncertain; also: printed as HOC18gEPEG2PEG2CO-r-Pen(3)-N-T-7MeW-K(Ac)-Pen(3)-AEF(d)-2Nal-THP-E-N-3Pya-Sar-CONH2
B12: SEQ ID NO: 72 (peptide)
peptide: [dR][Pen]NT[Trp(7-Me)]K([PEG2″-PEG2″-C18OH])[Pen][AEF][2Nal][Thp]EN[3Pal][Sar]-NH2
modifications: disulfide 2-7 (inferred); not fully specified (N-terminus); printed as cPEG3aCO-r-Pen(3)-N-T-7MeW-K(PEG2PEG2C18OH)-Pen(3)-AEF-2Nal-THP-E-N-3Pya-Sar-CONH2
B13: SEQ ID NO: 55 (peptide)
peptide: [dR][Pen]K([PEG2″-PEG2″-γGlu-C18OH])T[Trp(7-Me)]K(Ac)[Pen][AEF][2Nal][Thp]EN[3Pal][Sar]-NH2
modifications: disulfide 2-7 (inferred); not fully specified (N-terminus); printed as cPEG3aCO-r-Pen(3)-K(PEG2PEG2gEC18OH)-T-7MeW-K(Ac)-Pen(3)-AEF-2Nal-THP-E-N-3Pya-Sar-CONH2
B14: SEQ ID NO: 81 (peptide)
peptide: 5cpaCO-[dR][Pen]NT[Trp(7-Me)]K(Ac)[Pen][AEF][2Nal][Thp]EN[3Pal][Sar]K([PEG2′-PEG2′-γGlu-C18OH])-NH2
modifications: disulfide 2-7 (inferred); reading uncertain; also: printed as 5cpaCO-r-Pen(3)-N-T-7MeW-K(Ac)-Pen(3)-AEF-2Nal-THP-E-N-3Pya-Sar-K(PEG2PEG2gEC18OH)-CONH2
B15: SEQ ID NO: 36 (peptide)
peptide: Ac-[dR][Pen]NT[Trp(7-Me)]K([PEG2′-PEG2′-γGlu-C18OH])[Pen][dAEF′][2Nal][Thp]EN[3Pal][Sar]-NH2
modifications: disulfide 2-7 (inferred); reading uncertain; also: printed as MeCO-r-Pen(3)-N-T-7MeW-K(PEG2PEG2gEC18OH)-Pen(3)-AEF(d)-2Nal-THP-E-N-3Pya-Sar-CONH2
B16: SEQ ID NO: 77 (peptide)
peptide: XNTXXXXXXKNXX
modifications: 5cpaCO-Pen(3)-N-T-7MeW-K(Ac)-Pen(3)-AEF-2Nal-THP-K(PEG2PEG2gEC18OH)-N-3Pya-Sar-CONH2

Biological target: T1, interleukin-23 receptor (IL-23R) (UniProt Q5VWK5 24-629, limits assumed)
T1 sequence (looked up): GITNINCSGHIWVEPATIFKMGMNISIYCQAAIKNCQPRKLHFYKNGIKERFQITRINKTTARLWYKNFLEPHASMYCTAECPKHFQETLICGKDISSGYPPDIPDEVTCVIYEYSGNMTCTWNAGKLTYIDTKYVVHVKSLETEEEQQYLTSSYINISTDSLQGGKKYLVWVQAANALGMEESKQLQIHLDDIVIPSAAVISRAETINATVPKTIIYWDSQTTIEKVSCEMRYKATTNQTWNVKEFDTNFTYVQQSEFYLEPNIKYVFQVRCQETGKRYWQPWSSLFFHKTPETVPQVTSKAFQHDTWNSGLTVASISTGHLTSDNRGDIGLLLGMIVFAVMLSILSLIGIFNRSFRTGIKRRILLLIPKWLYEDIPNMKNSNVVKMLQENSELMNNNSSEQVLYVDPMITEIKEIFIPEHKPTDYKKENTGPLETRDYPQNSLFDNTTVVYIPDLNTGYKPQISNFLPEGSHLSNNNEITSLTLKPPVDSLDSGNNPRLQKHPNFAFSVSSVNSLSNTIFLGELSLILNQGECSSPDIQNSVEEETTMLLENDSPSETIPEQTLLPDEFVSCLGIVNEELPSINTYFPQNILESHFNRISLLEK
Experiment: cell-based or functional assay

PBMC pSTAT3 IC50 [nM] | Binder
< 0.5 | B1
< 0.5 | Ac-[Pen]NT[Trp(7-Me)]K(Ac)[Pen][TMAPF][2Nal][Thp]K([PEG2′-PEG2′-γGlu-C18OH])N[3Pal][Sar]-NH2 (disulfide 1-6 (inferred)) [SEQ ID NO: 85]
< 0.5 | Ac-[dK]([PEG2″-PEG2″-γGlu-C18OH])[Pen]NT[Trp(7-Me)]K(Ac)[Pen][AEF][2Nal][Thp]EN[3Pal][Sar]-NH2 (disulfide 2-7) [SEQ ID NO: 58]
< 0.5 | B2
< 0.5 | B3
< 0.5 | B4
< 0.5 | Ac-[dR][Pen]NT[Trp(7-Me)]K(Ac)[Pen][AEF][2Nal][Thp]EN[3Pal][NMeK]([PEG2′-NMePEG2-NMegE-NMeC18OH])-NH2 (disulfide 2-7 (inferred); reading uncertain) [SEQ ID NO: 80]
< 0.5 | B5
< 0.5 | Ac-[dR][Pen]K(code d″)T[Trp(7-Me)]K(Ac)[Pen][AEF][2Nal][Thp]EN[3Pal][Sar]K([PEG2″-PEG2″-γGlu-C18OH])-NH2 (disulfide 2-7 (inferred)) [SEQ ID NO: 53]
< 0.5 | B6
< 0.5 | B7
< 0.5 | B8
< 0.5 | B9
< 0.5 | B10
< 0.5 | B11
< 0.5 | B12
< 0.5 | Ac-[dR][Pen]NT[Trp(7-Me)]K(code d″)[Pen][AEF][2Nal][Thp]EN[3Pal][Sar]K([PEG2″-PEG2″-γGlu-C18OH])-NH2 (disulfide 2-7 (inferred)) [SEQ ID NO: 52]
< 0.5 | Ac-[dR][Pen]NT[Trp(7-Me)]K(code d)[Pen][AEF][2Nal][Thp]K([PEG2′-PEG2′-γGlu-C18OH])N[3Pal][Sar]-NH2 (disulfide 2-7 (inferred)) [SEQ ID NO: 48]
< 0.5 | B13
< 0.5 | B14
< 0.5 | B15
< 0.5 | B16
< 0.5 | Ac-[dR][Pen]NT[Trp(7-Me)]K([PEG2″-PEG2″-γGlu-C18OH])[Pen][AEF][2Nal][Thp]EN[3Pal][Sar]-NH2 (disulfide 2-7) [SEQ ID NO: 59]
< 0.5 | Ac-[dR][Pen]NT[Trp(7-Me)]K(Ac)[Pen][AEF][2Nal][Thp]K(code d)N[3Pal][NMeK]([PEG2′-PEG2′-γGlu-C18OH])-NH2 (disulfide 2-7 (inferred)) [SEQ ID NO: 41]

Source: patent publication US20260250320A1, “LIPIDATED PEPTIDE INHIBITORS OF INTERLEUKIN-23 RECEPTOR” (Janssen Pharmaceutica NV, priority 2023, published 2026)
